The test system of this experiment is enteric epithelial cells. As to the kind of experiment: Growth factor modulation of organotypic culture in reduced or modified media (Example 2). Type of experiment: cell-based, human. To be noted: growth factor added individually to base medium (MCDB 201/L15, transferrin, antibiotics). The method, then: To determine the role of growth factors on proliferation of colonic epithelial cells, this growth medium was modified by changing combinations of growth factors and deleting serum. Keratinocyte growth factor (KGF, R&D Systems) at 20 ng/ml was also tested as part of 23 growth factor combinations. Total relative cell numbers of a specific type were counted as an average of all nuclei counts from a minimum of 3 randomly selected cross-sections of a reconstruct. Goblet cells were counted based on their typical morphology and positive Alcian staining in at least 3 randomly selected slides. Proliferation rates in % were established by counting the number of BrdU or Ki-67-positive nuclei per total epithelial cell nuclei of section. Apoptotic cells were counted in H&E-stained sections (Vagunda, V. et al. 2000 Anal. Quant. Cytol. Histol., 22:307–310). Apoptotic bodies and nuclei were determined according to the size and numbers of the fragments. Apoptosis was calculated as percentage of total nuclei per section (Kerr, J F. et al. 1972 Br. J. Cancer, 26:239–257) To define the role of critical growth factors supporting growth and differentiation of the enteric epithelial cells, an organotypic culture, such as that described in Example 1, was grown in medium in which the number of supplements was reduced. […]

B1: Keratinocyte growth factor (protein, UniProt P21781 32-194, looked up)
Fibroblast growth factor 7: CNDMTPEQMATNVNCSSPERHTRSYDYMEGGDIRVRRLFCRTQWYLRIDKRGKVKGTQEMKNNYNIMEIRTVAVGIVAIKGVESEFYLAMNKEGKLYAKKECNEDCNFKELILENHYNTYASAKWTHNGGEMFVALNQKGIPVRGKKTKKEQKTAHFLPMAIT
notes: Keratinocyte growth factor (R&D Systems) at 20 ng/ml
For B1, the epithelial cell proliferation result is reported as “not supported”.

B2: epidermal growth factor (protein, UniProt P01133 23-1207, looked up)
Pro-epidermal growth factor: PQHWSCPEGTLAGNGNSTCVGPAPFLIFSHGNSIFRIDTEGTNYEQLVVDAGVSVIMDFHYNEKRIYWVDLERQLLQRVFLNGSRQERVCNIEKNVSGMAINWINEEVIWSNQQEGIITVTDMKGNNSHILLSALKYPANVAVDPVERFIFWSSEVAGSLYRADLDGVGVKALLETSEKITAVSLDVLDKRLFWIQYNREGSNSLICSCDYDGGSVHISKHPTQHNLFAMSLFGDRIFYSTWKMKTIWIANKHTGKDMVRINLHSSFVPLGELKVVHPLAQPKAEDDTWEPEQKLCKLRKGNCSSTVCGQDLQSHLCMCAEGYALSRDRKYCEDVNECAFWNHGCTLGCKNTPGSYYCTCPVGFVLLPDGKRCHQLVSCPRNVSECSHDCVLTSEGPLCFCPEGSVLERDGKTCSGCSSPDNGGCSQLCVPLSPVSWECDCFPGYDLQLDEKSCAASGPQPFLLFANSQDIRHMHFDGTDYGTLLSQQMGMVYALDHDPVENKIYFAHTALKWIERANMDGSQRERLIEEGVDVPEGLAVDWIGRRFYWTDRGKSLIGRSDLNGKRSKIITKENISQPRGIAVHPMAKRLFWTDTGINPRIESSSLQGLGRLVIASSDLIWPSGITIDFLTDKLYWCDAKQSVIEMANLDGSKRRRLTQNDVGHPFAVAVFEDYVWFSDWAMPSVMRVNKRTGKDRVRLQGSMLKPSSLVVVHPLAKPGADPCLYQNGGCEHICKKRLGTAWCSCREGFMKASDGKTCLALDGHQLLAGGEVDLKNQVTPLDILSKTRVSEDNITESQHMLVAEIMVSDQDDCAPVGCSMYARCISEGEDATCQCLKGFAGDGKLCSDIDECEMGVPVCPPASSKCINTEGGYVCRCSEGYQGDGIHCLDIDECQLGEHSCGENASCTNTEGGYTCMCAGRLSEPGLICPDSTPPPHLREDDHHYSVRNSDSECPLSHDGYCLHDGVCMYIEALDKYACNCVVGYIGERCQYRDLKWWELRHAGHGQQQKVIVVAVCVVVLVMLLLLSLWGAHYYRTQKLLSKNPKNPYEESSRDVRSRRPADTEDGMSSCPQPWFVVIKEHQDLKNGGQPVAGEDGQAADGSMQPTSWRQEPQLCGMGTEQGCWIPVSSDKGSCPQVMERSFHMPSYGTQTLEGGVEKPHSLLSANPLWQQRALDPPHQMELTQ
modifications: Pro-epidermal growth factor
notes: human recombinant epidermal growth factor (Sigma)
Take B2: the epithelial cell proliferation entry is “not supported”.
